Here are results for two molecules from patent US20250092135A1 (NANJING LEADS BIOLABS, published 2025).

Assay [1] deals with T1, Cynomolgus monkey CD3D & CD3E heterodimer protein (cynomolgus monkey, UniProt Q95LI5 22-117; Q95LI8 22-105).
T1 construct: same catalogue number; also called monkey CD3 protein (Acro biosystems, Cat #CDD-C52W4)
As to the kind of experiment: BLI (ForteBio Octet RED96), antibody on AHC sensor, analyte 100-3.13 nM, 1:1 model. From the text: (§1) In this experiment, the binding affinity of the bispecific antibody for the human CD3 protein (Cat #CT038-H2508H, Sinobiological), cynomolgus monkey CD3 protein (Cat #CDD-C52W4, Acrobiosystems), human MUC16 protein (full-length human MUC16, the membrane-proximal end of the extracellular region of MUC16 (Table 26)), and cynomolgus monkey MUC16 protein (full-length cynomolgus monkey MUC16, the membrane-proximal end of the extracellular region of MUC16 (Table 26)) was detected using ForteBio Octet RED96 according to the manufacturer's instructions.
(§2) Briefly, an AHC sensor (ForteBio, Cat #18-5060) was placed in a running buffer (1×PBS, Hyclone, Cat #SH30256.01, containing 0.02% Tween 20, pH 7.0) and pre-equilibrated at room temperature for 10 min. […] The experimental data were fitted and calculated using a Fortebio Data Analysis software 1:1 binding model.
(BLI is a label-free optical method that tracks binding on a fibre tip over time.)

Assay [2] deals with T2, Human CD3D & CD3E heterodimer protein (human, UniProt P07766 23-126; P04234 22-105).
T2 construct: Bought recombinant heterodimer; also called human CD3 protein (Sino Biological, Cat #CT038-H2508H)
The assay is described as above.
Description: as §1, §2

The target of assay [3] is T3, Cynomolgus monkey MUC16-His (cynomolgus monkey).
T3 construct: The entry includes the C-terminal 6xHis tag; also called Cynomolgus monkey MUC16 protein
T3 chain: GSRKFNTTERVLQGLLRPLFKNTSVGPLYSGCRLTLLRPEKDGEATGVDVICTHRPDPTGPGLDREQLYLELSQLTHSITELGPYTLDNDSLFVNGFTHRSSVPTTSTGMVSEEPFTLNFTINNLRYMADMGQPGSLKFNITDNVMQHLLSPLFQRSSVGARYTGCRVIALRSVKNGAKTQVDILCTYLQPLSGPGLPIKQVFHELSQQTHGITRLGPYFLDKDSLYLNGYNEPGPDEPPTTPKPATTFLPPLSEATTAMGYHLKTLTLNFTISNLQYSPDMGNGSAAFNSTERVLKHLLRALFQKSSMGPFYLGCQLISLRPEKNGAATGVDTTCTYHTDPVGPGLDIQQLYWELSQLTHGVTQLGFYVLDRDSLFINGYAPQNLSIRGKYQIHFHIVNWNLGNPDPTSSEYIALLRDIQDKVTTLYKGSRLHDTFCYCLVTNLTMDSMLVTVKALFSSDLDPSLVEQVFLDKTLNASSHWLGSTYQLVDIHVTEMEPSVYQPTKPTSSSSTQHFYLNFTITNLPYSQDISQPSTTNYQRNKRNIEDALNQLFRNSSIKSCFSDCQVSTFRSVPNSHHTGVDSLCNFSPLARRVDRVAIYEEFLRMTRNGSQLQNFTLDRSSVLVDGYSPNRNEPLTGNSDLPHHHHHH
Described as above.
Description: as §1, §2

Assay [4] has as its target T4, Human MUC16-His (human).
T4 construct: The entry includes the C-terminal 6xHis tag; also called membrane-proximal end of the extracellular region of the human MUC16 protein; Human MUC16 protein
T4 chain: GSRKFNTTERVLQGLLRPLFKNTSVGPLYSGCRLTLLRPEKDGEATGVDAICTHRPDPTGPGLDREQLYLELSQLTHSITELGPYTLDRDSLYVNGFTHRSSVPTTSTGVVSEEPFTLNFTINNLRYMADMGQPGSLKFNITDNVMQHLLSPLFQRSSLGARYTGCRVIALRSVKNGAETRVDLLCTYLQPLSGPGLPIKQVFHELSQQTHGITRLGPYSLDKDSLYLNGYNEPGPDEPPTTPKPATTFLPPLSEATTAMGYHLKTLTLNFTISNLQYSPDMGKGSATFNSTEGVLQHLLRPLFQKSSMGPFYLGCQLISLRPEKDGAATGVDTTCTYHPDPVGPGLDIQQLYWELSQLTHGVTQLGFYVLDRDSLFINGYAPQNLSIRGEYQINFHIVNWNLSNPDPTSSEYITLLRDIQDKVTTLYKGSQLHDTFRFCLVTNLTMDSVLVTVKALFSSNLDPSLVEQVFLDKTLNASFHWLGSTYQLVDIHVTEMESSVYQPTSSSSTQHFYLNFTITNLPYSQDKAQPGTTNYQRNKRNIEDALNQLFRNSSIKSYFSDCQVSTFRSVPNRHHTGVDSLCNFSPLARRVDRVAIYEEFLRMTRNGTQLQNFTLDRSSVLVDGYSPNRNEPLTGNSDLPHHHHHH
Described as above.
Description: as §1, §2

Assay [5] addresses T4, Human MUC16-His. Briefly: BLI (ForteBio Octet RED96), antibody on AHC sensor, 50 nM antigen, 1:1 model. The source says: The binding affinity of the anti-MUC-16 antibodies for the membrane-proximal end of the extracellular region of the human MUC16 protein (human MUC16-His, Table 26) and the membrane-proximal end of the extracellular region of the rhesus monkey MUC16 protein (rhesus monkey MUC16-His, Table 26) was detected by ForteBio Octet RED96, respectively. According to the manufacturer's instructions, an AHC sensor (ForteBio, Cat #18-5060) was placed in a running buffer (lx PBS, Hyclone, Cat #SH30256.01, containing 0.02% Tween 20, pH 7.0) and pre-equilibrated at room temperature for 10 min. In a 96-well plate, the kinetic assay was performed according to the following steps: a) equilibrating the baseline for 100 s with the running buffer; b) diluting the anti-MUC-16 antibodies with the running buffer to 5 μg/mL, immobilizing for 200 s, and stopping; c) equilibrating the baseline for 300 s with the running buffer; and d) diluting the human or rhesus monkey MUC16 protein with the running buffer to 50 nM, binding for 200 s, and dissociating for 600 s. The experimental data were fitted and calculated using a Fortebio Data Analysis software 1:1 binding model.

As a reminder, the Kd is the constant that tells how readily two partners part at equilibrium. As usually defined, the koff is a measure of how fast the partners let go of each other. As a reminder, the kon is a measure of how fast the partners come together.

T1 sequence (Q95LI5 22-117 limits assumed, chain 1 of 2): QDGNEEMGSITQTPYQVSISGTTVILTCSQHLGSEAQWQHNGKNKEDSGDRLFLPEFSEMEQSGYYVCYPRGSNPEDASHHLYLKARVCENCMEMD
T1 sequence (Q95LI8 22-105 limits assumed, chain 2 of 2): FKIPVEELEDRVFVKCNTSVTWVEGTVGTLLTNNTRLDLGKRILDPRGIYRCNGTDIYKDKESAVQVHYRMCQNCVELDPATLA
T2 sequence (P07766 23-126 limits assumed, chain 1 of 2): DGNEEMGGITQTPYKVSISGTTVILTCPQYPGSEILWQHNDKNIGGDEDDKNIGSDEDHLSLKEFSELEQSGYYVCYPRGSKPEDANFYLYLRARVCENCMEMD
T2 sequence (P04234 22-105 limits assumed, chain 2 of 2): as the sequence (Q95LI8 22-105 limits assumed, chain 2 of 2) above, with V5I, K15N, V20I, T32S, N33D, N34I, A64T, N74S, L83V counted along it

B1: anti-CD3/MUC16 bispecific antibody MCH7-23L2-MCH7 (bispecific antibody, human IgG1, kappa, L234A L235A)
heavy 1: QVQLVQSGAEVKKPGASVKVSCKASGYTFTDYNIHWVRQAPGQGLEWMGYIYPYNGVSDYNQNFKSRVTMTTDTSTSTAYMELRSLRSDDTAVYYCARWDFGSGYYFDYWGQGTLVTVSSASTKGPSVFPLAPSSKSTSGGTAALGCLVKDYFPEPVTVSWNSGALTSGVHTFPAVLQSSGLYSLSSVVTVPSSSLGTQTYICNVNHKPSNTKVDKKVEPKSCEVQLVESGGGLVQPGGSLKLSCAASGFTFSTYAMNWVRQAPGKGLEWVGRIRSKYNNYATYYADSVKDRFTISRDDSKNTLYLQMNSLKTEDTAVYYCTRHGNFGNSYVSWFAYWGQGTTVTVSSGGGGSGGGGSGGGGSQAVVTQEPSLTVSPGGTVTLTCRSSTGAVTTSNYANWVQQKPGQAPRGLIGGTNKRAPGVPARFSGSLLGGKAALTLSGAQPEDEAEYFCALWYSNLWVFGGGTKLTVLGEPKSSDKTHTCPPCPAPEAAGGPSVFLFPPKPKDTLMISRTPEVTCVVVAVSHEDPEVKFNWYVDGVEVHNAKTKPREEQYNSTYRVVSVLTVLHQDWLNGKEYKCKVSNKALAAPIEKTISKAKGQPREPQVCTLPPSRDELTKNQVSLSCAVKGFYPSDIAVEWESNGQPENNYKTTPPVLDSDGSFFLVSKLTVDKSRWQQGNVFSCSVMHEALHNHYTQKSLSLSPGK
heavy 2: not shown
light: EIVLTQSPATLSLSPGERATLSCRASSSVIYMSWYQQKPGQAPRLLIYGTSTLASGIPARFSGSGSGTDFTLTISSLEPEDFAVYYCQQWSSNPFTFGQGTKLEIKRTVAAPSVFIFPPSDEQLKSGTASVVCLLNNFYPREAKVQWKVDNALQSGNSQESVTEQDSKDSTYSLSSTLTLSKADYEKHKVYACEVTHQGLSSPVTKSFNRGEC
notes: MCH7-23L2ScFv-Hole (VH-CH1-scFv-Fc) + MCH7-KIH-Knob + two light chains MCL4 LC
On to B1, for which the Kd came out at 30.4 nM in assay [1], 44.3 nM in assay [2], 2.91 nM in assay [3] and 3.17 nM with Human MUC16-His [4]. Besides, the koff in assay [1] came to 0.00378 s⁻¹; in assay [2], 0.00933 s⁻¹; in assay [3], 0.000546 s⁻¹; with Human MUC16-His [4], 0.000524 s⁻¹. Besides, the kon was 124000 M⁻¹ s⁻¹ in assay [1], 211000 M⁻¹ s⁻¹ in assay [2], 188000 M⁻¹ s⁻¹ in assay [3] and 166000 M⁻¹ s⁻¹ with Human MUC16-His [4].

B2: anti-MUC16 antibody 776.1(C33S) (antibody, human IgG1, kappa, L234A L235A, V domains shown)
VH: EVQLQQSGPELVKPGASVKISCKASGYTFTDYNIHWVKQSHGKILEWIGYIYPYNGVSDYNQNFKSKATLIVDNSSNTAYMELRSLTSEDSAVYYCARWDFGSGYYFDYWGQGTTLTVSS
VL: QIVLSQSPAILFASPGETVTMTCRASSSVIYMSWNQQKPGSSPKPWIYGTSTLASGVPTRFSGSGSGTSYSLTISRVEAEDAATYYCQQWSSNPFTFGSGTKLEIKR
On to B2, for which, in the assay with Human MUC16-His [5], the Kd was found to be 0.921 nM, the koff is 0.000245 s⁻¹ and the kon came to 266000 M⁻¹ s⁻¹.
